Measured values taken from patent US20260217835A1 (published 2026).

Columns and labels:
Assay in all cases: SPR, Biacore T200, pH 7.4; antibody captured on Protein L, FcγR as analyte
[1] = target: T1, human FcγRIIIa, allotype 176V (human, UniProt P08637 17-208, limits assumed)
T1 construct: also called hFcgRIIIa_176V

human FcγRIa = target: T2, human FcγRIa (human, UniProt P12314 16-292, limits assumed)
T2 construct: also called hFcgRIa

[2] = target: T3, human FcγRIIIa, allotype 176F (human, UniProt P08637 17-208, limits assumed)
T3 construct: also called hFcgRIIIa_176F

[3] = target: T4, human FcγRIIa, allotype 167R (human, UniProt P12318 34-217, limits assumed)
T4 construct: also called hFcgRIIa_167R
T4 sequence (looked up): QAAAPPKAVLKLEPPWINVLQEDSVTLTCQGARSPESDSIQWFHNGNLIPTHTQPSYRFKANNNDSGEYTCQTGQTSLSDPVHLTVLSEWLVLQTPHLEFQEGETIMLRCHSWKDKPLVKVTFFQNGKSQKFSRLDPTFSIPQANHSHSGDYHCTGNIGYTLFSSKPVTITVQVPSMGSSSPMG

Measured: binding result

B1: Sample No. 87 (antibody, human IgG1, kappa)
heavy: QVQLQESGPGLVRPSQTLSLTCTVSGYSITSDHAWSWVRQPPGRGLEWIGYISYSGITTYNPSLKSRVTMLRDTSKNQFSLRLSSVTAADTAVYYCARSLARTTAMDYWGQGSLVTVSSASTKGPSVFPLAPSSKSTSGGTAALGCLVKDYFPEPVTVSWNSGALTSGVHTFPAVLQSSGLYSLSSVVTVPSSSLGTQTYICNVNHKPSNTKVDKRVEPKSCDKTHTCPPCPAPELLGGPSVFLFPPKPKDTLMISRTPEVTCVVVDVSHEDPEVKFNWYVDGVEVHNAKTKPREEQYNSTYRVVSVLTVLHQDWLNGKEYKCKVSNKALPAPIEKTISKAKGQPREPQVYTLPPSREEMTKNQVSLWCAVKGFYPSDIAVEWESNGQPENNYKTTPPVLDSDGSFFLVSKLTVDKSRWQQGNVFSCSVMHEALHNHYTQKSLSLSP
light: not shown
notes: also called T366W/L368A/Y407V
binds: [1] | human FcγRIa | [2] | [3]

B2: Sample No. 92 (antibody, human IgG1, kappa)
heavy: QVQLQESGPGLVRPSQTLSLTCTVSGYSITSDHAWSWVRQPPGRGLEWIGYISYSGITTYNPSLKSRVTMLRDTSKNQFSLRLSSVTAADTAVYYCARSLARTTAMDYWGQGSLVTVSSASTKGPSVFPLAPSSKSTSGGTAALGCLVKDYFPEPVTVSWNSGALTSGVHTFPAVLQSSGLYSLSSVVTVPSSSLGTQTYICNVNHKPSNTKVDKRVEPKSCDKTHTCPPCPAPELLGGPSVFLFPPKPKDTLMISRTPEVTCVVVDVSHEDPEVKFNWYVDGVEVHNAKTKPREEQYNSTYRVVSVLTVLHQDWLNGKEYKCKVSNKALPAPIEKTISKAKGQPREPRVYTLPPSREEMTENQVSLTCLVKGFYPSDIAVEWESNGQPENNYKTTPPVLVSDGSFTLYSWLTVDKSRWQQGNVFSCSVMHEALHNHYTQKSLSLSP
light: not shown
notes: also called Q347R/K360E/D399V/F405T/K409W
binds: [1] | human FcγRIa | [2] | [3]

B3: Sample No. 102 (antibody, human IgG1, kappa)
heavy: QVQLQESGPGLVRPSQTLSLTCTVSGYSITSDHAWSWVRQPPGRGLEWIGYISYSGITTYNPSLKSRVTMLRDTSKNQFSLRLSSVTAADTAVYYCARSLARTTAMDYWGQGSLVTVSSASTKGPSVFPLAPSSKSTSGGTAALGCLVKDYFPEPVTVSWNSGALTSGVHTFPAVLQSSGLYSLSSVVTVPSSSLGTQTYICNVNHKPSNTKVDKRVEPKSCDKTHTCPPCPAPELLGGPSVFLFPPKPKDTLMISRTPEVTCVVVDVSHEDPEVKFNWYVDGVEVHNAKTKPREEQYNSTYRVVSVLTVLHQDWLNGKEYKCKVSNKALPAPIEKTISKAKGQPREPQVYTLPPSREEMTKNQVSLTCLVKGFYPSDIAVEWESNGQPENNYLTWPPVLDSDGSFALVSKLTVDKSRWQQGNVFSCSVMHEALHNHYTQKSLSLSP
light: not shown
notes: also called K392L/T394W/F405A/Y407V
binds: [1] | human FcγRIa | [2] | [3]

B4: Sample No. 109 (antibody, human IgG1, kappa)
heavy: QVQLQESGPGLVRPSQTLSLTCTVSGYSITSDHAWSWVRQPPGRGLEWIGYISYSGITTYNPSLKSRVTMLRDTSKNQFSLRLSSVTAADTAVYYCARSLARTTAMDYWGQGSLVTVSSASTKGPSVFPLAPSSKSTSGGTAALGCLVKDYFPEPVTVSWNSGALTSGVHTFPAVLQSSGLYSLSSVVTVPSSSLGTQTYICNVNHKPSNTKVDKRVEPKSCDKTHTCPPCPAPELLGGPSVFLFPPKPKDTLMISRTPEVTCVVVDVSHEDPEVKFNWYVDGVEVHNAKTKPREEQYNSTYRVVSVLTVLHQDWLNGKEYKCKVSNKALPAPIEKTISKAKGQPREPQVYTLPPSRKEMTKNQVSLTCLVKGFYPSDIAVEWESNGQPENNYDTTPPVLKSDGSFFLYSKLTVDKSRWQQGNVFSCSVMHEALHNHYTQESLSLSP
light: not shown
notes: also called E356K/K392D/D399K/K439E
binds: [1] | human FcγRIa | [2] | [3]

B5: Sample No. 111 (antibody, human IgG1, kappa)
heavy: QVQLQESGPGLVRPSQTLSLTCTVSGYSITSDHAWSWVRQPPGRGLEWIGYISYSGITTYNPSLKSRVTMLRDTSKNQFSLRLSSVTAADTAVYYCARSLARTTAMDYWGQGSLVTVSSASTKGPSVFPLAPSSKSTSGGTAALGCLVKDYFPEPVTVSWNSGALTSGVHTFPAVLQSSGLYSLSSVVTVPSSSLGTQTYICNVNHKPSNTKVDKRVEPKSCDKTHTCPPCPAPELLGGPSVFLFPPKPKDTLMISRTPEVTCVVVDVSHEDPEVKFNWYVDGVEVHNAKTKPREEQYNSTYRVVSVLTVLHQDWLNGKEYKCKVSNKALPAPIEKTISKAKGQPREPQVYTLPPSREEMTKNQVSLTCLVKGFYPSDIAVEWESNGQPENNYDTTPPVLKSDGSFFLYSDLTVDKSRWQQGNVFSCSVMHEALHNHYTQKSLSLSP
light: not shown
notes: also called K392D/D399K/K409D
binds: [1] | human FcγRIa | [2] | [3]

B6: Sample No. 100 (antibody, human IgG1, kappa)
heavy: QVQLQESGPGLVRPSQTLSLTCTVSGYSITSDHAWSWVRQPPGRGLEWIGYISYSGITTYNPSLKSRVTMLRDTSKNQFSLRLSSVTAADTAVYYCARSLARTTAMDYWGQGSLVTVSSASTKGPSVFPLAPSSKSTSGGTAALGCLVKDYFPEPVTVSWNSGALTSGVHTFPAVLQSSGLYSLSSVVTVPSSSLGTQTYICNVNHKPSNTKVDKRVEPKSCDKTHTCPPCPAPELLGGPSVFLFPPKPKDTLMISRTPEVTCVVVDVSHEDPEVKFNWYVDGVEVHNAKTKPREEQYNSTYRVVSVLTVLHQDWLNGKEYKCKVSNKALPAPIEKTISKAKGQPREPEVYTLPPYREEMTKNQVSLYCLVKGFYPSDIAVEWESNGQPENNYKTTPPVLDSDGSFFLTSKLTVDKSRWQQGNVFSCSVMHEALHNHYTQKSLSLSP
light: not shown
notes: also called Q347E/S354Y/T366Y/Y407T
binds: [1] | human FcγRIa | [2] | [3]

B7: Sample No. 97 (antibody, human IgG1, kappa)
heavy: QVQLQESGPGLVRPSQTLSLTCTVSGYSITSDHAWSWVRQPPGRGLEWIGYISYSGITTYNPSLKSRVTMLRDTSKNQFSLRLSSVTAADTAVYYCARSLARTTAMDYWGQGSLVTVSSASTKGPSVFPLAPSSKSTSGGTAALGCLVKDYFPEPVTVSWNSGALTSGVHTFPAVLQSSGLYSLSSVVTVPSSSLGTQTYICNVNHKPSNTKVDKRVEPKSCDKTHTCPPCPAPELLGGPSVFLFPPKPKDTLMISRTPEVTCVVVDVSHEDPEVKFNWYVDGVEVHNAKTKPREEQYNSTYRVVSVLTVLHQDWLNGKEYKCKVSNKALPAPIEKTISKAKGQPREPQVYTLPPSRKEMTKNQVSLTCLVKGFYPSDIAVEWESNGQPENNYKTTPPVLKSDGSFFLYSELTVDKSRWQQGNVFSCSVMHEALHNHYTQESLSLSP
light: not shown
notes: also called E356K/D399K/K409E/K439E
binds: [1] | human FcγRIa | [2] | [3]

B8: Sample No. 112 (antibody, human IgG1, kappa)
heavy: QVQLQESGPGLVRPSQTLSLTCTVSGYSITSDHAWSWVRQPPGRGLEWIGYISYSGITTYNPSLKSRVTMLRDTSKNQFSLRLSSVTAADTAVYYCARSLARTTAMDYWGQGSLVTVSSASTKGPSVFPLAPSSKSTSGGTAALGCLVKDYFPEPVTVSWNSGALTSGVHTFPAVLQSSGLYSLSSVVTVPSSSLGTQTYICNVNHKPSNTKVDKRVEPKSCDKTHTCPPCPAPELLGGPSVFLFPPKPKDTLMISRTPEVTCVVVDVSHEDPEVKFNWYVDGVEVHNAKTKPREEQYNSTYRVVSVLTVLHQDWLNGKEYKCKVSNKALPAPIEKTISKAKGQPREPQVCTLPPSRECMTKNQVSLTCLVKGFYPSDIAVEWESNGQPENNYDTTPPVLKSDGSFFLYSKLTVDKSRWQQGNVFSCSVMHEALHNHYTQKSLSLSP
light: not shown
notes: also called Y349C/E357C/K392D/D399K
binds: [1] | human FcγRIa | [2] | [3]
